The text below walks through data of ChEMBL document CHEMBL2073843, “Characterization of the role of polar amino acid residues within predicted transmembrane helix 17 in determining the substrate specificity of multidrug resistance protein 3” (Biochemistry, 2003).

Substrate in the series: C[C@]12CC[C@@H]3c4ccc(O)cc4CC[C@H]3[C@@H]1CC[C@@H]2O[C@@H]1O[C@H](C(=O)O)[C@@H](O)[C@H](O)[C@H]1O
Particulars: HEK293; Membrane vesicle.

Description: TP_TRANSPORTER: uptake in membrane vesicles from MRP3-expressing HEK cells

B1: Multidrug resistance associated protein (Homo sapiens), Q96QA9 (protein)
chain: MDALCGSGELGSKFWDSNLSVHTENPDLTPCFQNSLLAWVPCIYLWVALPCYLLYLRHHCRGYIILSHLSKLKMVLGVLLWCVSWADLFYSFHGLVHGRAPAPVFFVTPLVVGVTMLLATLLIQYERLQGVQSSGVLIIFWFLCVVCAIVPFRSKILLAKAEGEISDPFRFTTFYIHFALVLSALILACFREKPPFFSAKNVDPNPYPETSAGFLSRLFFWWFTKMAIYGYRHPLEEKDLWSLKEEDRSQMVVQQLLEAWRKQEKQTARHKASAAPGKNASGEDEVLLGARPRPRKPSFLKALLATFGSSFLISACFKLIQDLLSFINPQLLSILIRFISNPMAPSWWGFLVAGLMFLCSMMQSLILQHYYHYIFVTGVKFRTGIMGVIYRKALVITNSVKRASTVGEIVNLMSVDAQRFMDLAPFLNLLWSAPLQIILAIYFLWQNLGPSVLAGVAFMVLLIPLNGAVAVKMRAFQVKQMKLKDSRIKLMSEILNGIKVLKLYAWEPSFLKQVEGIRQGELQLLRTAAYLHTTTTFTWMCSPFLVTLITLWVYVYVDPNNVLDAEKAFVSVSLFNILRLPLNMLPQLISNLTQASVSLKRIQQFLSQEELDPQSVERKTISPGYAITIHSGTFTWAQDLPPTLHSLDIQVPKGALVAVVGPVGCGKSSLVSALLGEMEKLEGKVHMKGSVAYVPQQAWIQNCTLQENVLFGKALNPKRYQQTLEACALLADLEMLPGGDQTEIGEKGINLSGGQRQRVSLARAVYSDADIFLLDDPLSAVDSHVAKHIFDHVIGPEGVLAGKTRVLVTHGISFLPQTDFIIVLADGQVSEMGPYPALLQRNGSFANFLCNYAPDEDQGHLEDSWTALEGAEDKEALLIEDTLSNHTDLTDNDPVTYVVQKQFMRQLSALSSDGEGQGRPVPRRHLGPSEKVQVTEAKADGALTQEEKAAIGTVELSVFWDYAKAVGLCTTLAICLLYVGQSAAAIGANVWLSAWTNDAMADSRQNNTSLRLGVYAALGILQGFLVMLAAMAMAAGGIQAARVLHQALLHNKIRSPQSFFDTTPSGRILNCFSKDIYVVDEVLAPVILMLLNSFFNAISTLVVIMASTPLFTVVILPLAVLYTLVQRFYAATSRQLKRLESVSRSPIYSHFSETVTGASVIRAYNRSRDFEIISDTKVDANQRSCYPYIISNRWLSIGVEFVGNCVVLFAALFAVIGRSSLNPGLVGLSVSYSLQVTFALNWMIRMMSDLESNIVAVERVKEYSKTETEAPWVVEGSRPPEGWPPRGEVEFRNYSVRYRPGLDLVLRDLSLHVHGGEKVGIVGRTGAGKSSMTLCLFRILEAAKGEIRIDGLNVADIGDPILFSGTLRMNLDPFGSYSEEDIWWALELSHLHTFVSSQPAGLDFQCSEGGENLSVGQRQLVCLARALLRKSRILVLDEATAAIDLETDNLIQATIRTQFDTCTVLTIAHRLNTIMDYTRVLVLDKGVVAEFDSPANLIAARGIFYGMARDAGLA
One may read the Km as the substrate concentration at which the rate is half of its maximum. Turning to B1, the Km stood at 29 µM.
